{
  "source": "patent US9388450B2",
  "about": "“FRET based multiplex probes” (University of North Texas Health Science Center at Fort …, priority 2013, dated 2016)",
  "format_in_all_cases": "biochemical",
  "key": {"MMP-2": {"molecular_target": "T1, MMP-2 (Homo sapiens, UniProt P08253)", "T1 sequence (P08253 110-660)": "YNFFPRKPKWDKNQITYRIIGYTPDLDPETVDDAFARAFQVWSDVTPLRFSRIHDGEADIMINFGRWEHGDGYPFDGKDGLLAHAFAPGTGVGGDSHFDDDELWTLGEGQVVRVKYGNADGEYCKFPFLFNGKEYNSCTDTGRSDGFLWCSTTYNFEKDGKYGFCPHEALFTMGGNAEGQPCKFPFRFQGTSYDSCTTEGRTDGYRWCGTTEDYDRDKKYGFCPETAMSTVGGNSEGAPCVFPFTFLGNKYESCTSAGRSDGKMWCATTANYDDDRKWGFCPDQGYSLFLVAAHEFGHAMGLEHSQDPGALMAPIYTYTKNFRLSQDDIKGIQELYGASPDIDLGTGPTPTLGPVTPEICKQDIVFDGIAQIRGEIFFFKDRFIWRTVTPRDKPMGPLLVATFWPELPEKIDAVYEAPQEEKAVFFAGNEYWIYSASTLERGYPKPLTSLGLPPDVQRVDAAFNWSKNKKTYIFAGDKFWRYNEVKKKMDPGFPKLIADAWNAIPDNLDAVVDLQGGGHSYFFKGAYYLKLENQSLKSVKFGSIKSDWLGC", "assay": "specificity of peptide: digestion by MMP-2", "details": "peptide as substrate", "from_the_text": "(§1) They have also shown that the peptide is very specific and is not digested by MMP-2 enzyme MMP-3 or MMP-7 enzymes. FRET sensitized fluorescence detection proves to be very effective detection approach. Similar specific peptide sequences have been developed for MMP-2, MMP-7 and more. To make highly confident assessment of various proteases activities directly in cells and tissue it is necessary to have single molecular probe capable for simultaneous analysis/detection of more than one protease. The present invention includes methods for developing and constructing a new probe that will be capable of simultaneous detection of activities of two proteases (like MMP-2 and MMP-9) at the same time and the same place by the same molecule (molecular construct). […] The probe is constructed in a way to force two sequential steps of energy transfer process. First step (FRET 1), is mediated through the cleavable linker specific to enzyme 1 (for example MMP-9) and occurs between the first energy donor and first acceptor (acceptor is a central body). Second step (FRET 2), is between the first acceptor that becomes donor to the second acceptor. The second donor and second acceptor are separated by linker specific to enzyme 2 (for example MMP-2). A highly efficient well-defined sequential FRET process offers distinctive signatures for recognizing two proteins activities. […]"}, "MMP-3": {"molecular_target": "MMP-3 (Homo sapiens, UniProt P08254)", "sequence (P08254 100-477)": "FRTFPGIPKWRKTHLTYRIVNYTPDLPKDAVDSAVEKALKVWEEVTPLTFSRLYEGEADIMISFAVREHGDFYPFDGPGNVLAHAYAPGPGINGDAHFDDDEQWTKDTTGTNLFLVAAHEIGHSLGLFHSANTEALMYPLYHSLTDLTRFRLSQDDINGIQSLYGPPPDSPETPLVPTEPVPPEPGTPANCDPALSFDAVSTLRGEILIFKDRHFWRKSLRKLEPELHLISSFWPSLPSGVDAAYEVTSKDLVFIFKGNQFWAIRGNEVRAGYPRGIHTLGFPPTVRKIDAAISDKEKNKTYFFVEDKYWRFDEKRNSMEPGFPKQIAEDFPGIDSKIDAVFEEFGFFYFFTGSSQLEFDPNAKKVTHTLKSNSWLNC", "assay": "specificity of peptide: digestion by MMP-3", "details": "peptide as substrate", "from_the_text": "as §1"}, "MMP-9": {"molecular_target": "MMP-9 (Homo sapiens, UniProt P14780)", "sequence (P14780 94-707)": "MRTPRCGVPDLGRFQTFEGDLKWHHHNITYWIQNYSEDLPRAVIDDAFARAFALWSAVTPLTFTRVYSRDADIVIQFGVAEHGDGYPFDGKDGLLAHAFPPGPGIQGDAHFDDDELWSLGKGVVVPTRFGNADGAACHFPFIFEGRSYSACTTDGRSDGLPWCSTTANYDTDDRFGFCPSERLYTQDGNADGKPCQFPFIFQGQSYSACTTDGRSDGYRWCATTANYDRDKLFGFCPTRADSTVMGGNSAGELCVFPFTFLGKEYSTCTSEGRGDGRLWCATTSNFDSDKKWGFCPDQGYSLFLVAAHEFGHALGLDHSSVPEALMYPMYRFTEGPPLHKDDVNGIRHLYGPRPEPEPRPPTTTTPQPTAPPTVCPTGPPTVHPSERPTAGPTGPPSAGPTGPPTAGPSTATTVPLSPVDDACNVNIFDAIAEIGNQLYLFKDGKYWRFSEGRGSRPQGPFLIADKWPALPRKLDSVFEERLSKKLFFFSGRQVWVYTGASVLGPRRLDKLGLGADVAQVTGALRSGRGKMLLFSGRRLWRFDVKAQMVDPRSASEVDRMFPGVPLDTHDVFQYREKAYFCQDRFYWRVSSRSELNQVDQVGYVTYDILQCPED", "assay": "FRET-based detection of peptide cleavage by MMP-9", "from_the_text": "Matrix metalloproteinases (MMPs) are involved in major human diseases such as cancer, AIDS, and inflammation. Therefore, sensitive detection and imaging of MMPs activities offer great clinical value to cancer detection, treatment, and therapy monitoring. Among many successful approaches that utilize peptide chemistry Förster resonance energy transfer (FRET) offers high potential for development of in-vitro and in-vivo proteases assays. Recently we developed and tested a specific peptide sequence that is a substrate for MMP-9 (Lys-Gly-Pro-Arg-Ser-Leu-Ser-Gly-Lys) (SEQ ID NO.: 3) (FIG. 4), which is cleaved into Lys-Gly-Pro-Arg-Ser (SEQ ID NO.: 4) and Leu-Ser-Gly-Lys (SEQ ID NO.: 5). Other non-limiting sequence targets can include, e.g., peptide substrates for a consensus for MMP-2 (Lys-Gly-Ser-Gly-Pro-Tyr-Val-Ile-Trp-Leu-Gly-Lys) (SEQ ID NO.: 6) (SEQ ID NO.: 7). In this approach, one end of the specific peptide was labeled with a donor and the other with an acceptor chromophore. A selective cleavage of this specific peptide sequence by MMP-9 protease results in the separation of the two segments of oligopeptide carrying the donor and acceptor and consequently leads to significant increase of donor signal and decrease in acceptor signal. A ratiometric approach allows excellent dynamic range for detection that produces an almost 60 fold change when going from intact to completely cleaved peptide.\nThey have also shown that the peptide is very specific and is not digested by MMP-2 enzyme MMP-3 or MMP-7 enzymes. FRET sensitized fluorescence detection proves to be very effective detection approach. Similar specific peptide sequences have been developed for MMP-2, MMP-7 and more. To make highly confident assessment of various proteases activities directly in cells and tissue it is necessary to have single molecular probe capable for simultaneous analysis/detection of more than one protease. […]"}, "MMP-7": {"molecular_target": "T2, MMP-7 (Homo sapiens, UniProt P09237)", "T2 sequence (P09237 95-267)": "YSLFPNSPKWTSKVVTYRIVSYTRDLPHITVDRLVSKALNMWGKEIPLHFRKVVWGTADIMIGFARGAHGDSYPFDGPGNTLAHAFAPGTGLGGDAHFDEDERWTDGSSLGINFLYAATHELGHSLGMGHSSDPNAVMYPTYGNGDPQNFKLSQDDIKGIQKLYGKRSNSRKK", "assay": "specificity of peptide: digestion by MMP-7", "details": "peptide as substrate", "from_the_text": "as §1"}},
  "note": "Ends that are not written are not given here.",
  "data": [
    {"substance": "Lys-Gly-Pro-Arg-Ser-Leu-Ser-Gly-Lys (KGPRSLSGK; also: donor and acceptor labels) [labeled with donor on one end and acceptor on the other]", "values": [
      {"measurement": "digestion of the peptide by MMP-2 enzyme", "setting": "MMP-2", "value": "not digested"},
      {"measurement": "digestion of the peptide by MMP-3 enzyme", "setting": "MMP-3", "value": "not digested"},
      {"measurement": "cleavage of the peptide by MMP-9", "setting": "MMP-9; peptide as substrate", "value": "very effectively cleaves"},
      {"measurement": "FRET when intact", "setting": "MMP-9; peptide labeled with donor and acceptor, intact, before addition of MMP-9", "value": "> 90", "unit": "%"},
      {"measurement": "ratiometric change (donor/acceptor signal) going from intact to completely cleaved peptide", "setting": "MMP-9; peptide labeled with donor on one end and acceptor on the other, cleaved by MMP-9", "value": "~60", "unit": "fold"},
      {"measurement": "digestion of the peptide by MMP-7 enzyme", "setting": "MMP-7", "value": "not digested"}
    ]}
  ]
}
